Columns and labels:
Experiment in all cases: purified protein
Settings in all cases: untreated (not acid-activated) enzyme, 50 mM TEA/HCl pH 7.0, 30°C
purified protein [1] = substrate: CC(C)C[C@H](N)C(=O)O
purified protein [2] = substrate: COC(=O)[C@@H](N)CC(C)C
purified protein [3] = substrate: CSCC[C@H](N)C(=O)O
purified protein [4] = substrate: NC(=O)CC[C@H](N)C(=O)O
purified protein [5] = substrate: N[C@@H](Cc1ccccc1)C(=O)O

B1: 9-hcLAAO4 (9His-hcLAAO4) (Hebeloma cylindrosporum) (protein)
chain: ADTTSVPFDAESRDQIFQHHARSVISGYTNTLGEKNISVPSSPPGGERVGILGAGIGGLYSALILQSLDVPFEIIEASNRVGGRLFTHKFPNGGKYDYYDVGAMRYPLPKSDDKGNYQPGVMQRVGQLFTYLGMHKQLIPYYFKSNKSPGFQYFNGVRARIGEGSSFDAPALGINSSLIDIGVTKIVNDAVGPFAQALFDDLQKHTTTGWDDMMKNDAYSTRSYFSFKYLPSPSFGLPSEHFSTRVINWLETFDKSTGWYDRGLTETVLEAIAFGEVGDGEVDWRCIDGGSHVLPDTIAAFLHKKGGNAFVMNASVTAIGLENPNKEDSPMVVVAGGQKRKYSHVISTLPLPVLRTVDLKNSKLDIVQSNALRKLQYGPSIKIGILFKEPWWTTGQDKNGEKFDLVGGQSYTDLPIRTVVYPSYGVNTNAPSNTLIASYCWTNDAERMGSLIGTGKKTYEEQLEHLVLSNLAAVHNTDYQYLKDRLVDVHSWDWNHNPLTMGAFAFFGPGDFQDLYTSLNRPAANGKLHFAGEALSVRHAWVVGALDSAWRAVYNYLYVTDPAKLPKFFELWGKNAEWFEQPGDGKEPNSDNSLLEKFVRRTHGTVSV
How did the Km (purified protein [1]) turn out when B1 was run?
Its Km is 40 ± 40 µM.

And the Vmax (purified protein [1])?
The Vmax was 7.67 µmol/min/mg.

And the Km (purified protein [2])?
The Km was 3010 ± 680 µM.

And the Vmax (purified protein [2])?
Its Vmax is 8.41 µmol/min/mg.

What about the Km (purified protein [3]) of the same protein?
The Km was 160 ± 100 µM.

What about the Vmax (purified protein [3]) of the same protein?
The Vmax was 5.98 µmol/min/mg.

And the Km (purified protein [4])?
The Km was 510 ± 110 µM.

And the Vmax (purified protein [4])?
The Vmax was 8.87 µmol/min/mg.

And the Km (purified protein [5])?
Its Km is 70 ± 70 µM.

What about the Vmax (purified protein [5]) of the same protein?
The Vmax was 3.25 µmol/min/mg.

Reference: article PMC7568252, “Recombinant expression of an L‐amino acid oxidase from the fungus Hebeloma cylindrosporum in Pichia pastoris including fermentation” (MicrobiologyOpen, 2020)
